In US20260152527A1 (SIGHTSTREAM BIOTHERAPEUTICS, published 2026):
Starred links: 1 amine or outer side, 2 acyl side, 3 side chain; linkers in the order of their positions; H or OH if unused. Positions of bridges follow the written chain, without caps; N, C: chain ends. Non-standard residues stand in square brackets, D forms with d. *: point of attachment. HyPA = 3,5-dihydroxyphenylacetic acid (N-terminal cap), O=C(Cc1cc(O)cc(O)c1)*; MoPA = (3-methoxyphenyl)acetic acid (N-terminal cap), COc1cccc(CC(=O)*)c1; dTyr(Me) = O-methyl-D-tyrosine, COc1ccc(C[C@@H](N[*:1])C(=O)[*:2])cc1; Phe(OCH3) = O-methyl-tyrosine, COc1ccc(C[C@H](N[*:1])C(=O)[*:2])cc1; Hgln = homoglutamine, NC(=O)CCC[C@H](N[*:1])C(=O)[*:2]; dPhe(4-CF3) = N[C@H](Cc1ccc(C(F)(F)F)cc1)C(=O)O; Trp(1-Me) = Cn1cc(C[C@H](N)C(=O)O)c2ccccc21; Benzoyl(3,5-(OH)2) = O=C(c1cc(O)cc(O)c1)*; NMeW = CN[C@@H](Cc1c[nH]c2ccccc12)C(=O)O; Lys(N3) = [N-]=[N+]=NCCCC[C@H](N)C(=O)O; Phe(4-NH2) = Nc1ccc(C[C@H](N)C(=O)O)cc1; Orn(N3) = [N-]=[N+]=NCCC[C@H](N)C(=O)O; NMeH = CN[C@@H](Cc1c[nH]cn1)C(=O)O; NMeR = CN[C@@H](CCCNC(=N)N)C(=O)O; dNMeF = CN[C@H](Cc1ccccc1)C(=O)O; hArg = N=C(N)NCCCC[C@H](N)C(=O)O; R5 = C=CCCC[C@@](C)(N)C(=O)O; S5 = C=CCCC[C@](C)(N)C(=O)O; Hpra = C#CCC[C@H](N)C(=O)O; Nle = CCCC[C@H](N)C(=O)O; Pra = C#CC[C@H](N)C(=O)O

B1: KR-038 (peptide)
peptide: Ac-[Nle][R5]H[dF]RW[S5]-NH2
modifications: staple 2-7
SMILES: CCCC[C@H](NC(C)=O)C(=O)N[C@]1(C)CCCC=CCCC[C@@](C)(C(N)=O)NC(=O)[C@H](Cc2c[nH]c3ccccc23)NC(=O)[C@H](CCCNC(=N)N)NC(=O)[C@@H](Cc2ccccc2)NC(=O)[C@H](Cc2c[nH]cn2)NC1=O
B2: KR-006 (peptide)
peptide: Ac-SYSMEHFRWGK-NH2
B3: KR-057 (peptide)
peptide: Ac-[Nle][Lys(N3)]H[dF]RW[Pra][Hgln]-NH2
modifications: triazole 2-7; not fully specified; printed as Ac-Nle-[Lys(N3)-His-DPhe-Arg-Trp-Pra]-Hgln-NH2
B4: KR-054 (peptide)
peptide: Ac-[Nle][Lys(N3)]H[dF][hArg]W[Pra]K-NH2
modifications: triazole 2-7; not fully specified; printed as Ac-Nle-[Lys(N3)-His-DPhe-HArg-Trp-Pra]-Lys-NH2
B5: KR-061 (peptide)
peptide: Ac-[Nle][Lys(N3)][Phe(OCH3)][dF]RW[Pra]K-NH2
modifications: triazole 2-7; not fully specified; printed as Ac-Nle-[Lys(N3)-Phe(OCH3)-DPhe-Arg-Trp-Pra]-Lys-NH2
B6: KR-066 (peptide)
peptide: Ac-[Nle][Lys(N3)]H[dF]RW[Hpra]K-NH2
modifications: triazole 2-7; not fully specified; printed as Ac-Nle-[Lys(N3)-His-DPhe-Arg-Trp-HPra]-Lys-NH2
B7: KR-051 (peptide)
peptide: Ac-[Nle][Lys(N3)][NMeH][dF]R[NMeW][Pra]-NH2
modifications: triazole 2-7
B8: KR-045 (peptide)
peptide: Ac-[Nle][Lys(N3)]H[dF][NMeR]W[Pra]-NH2
modifications: triazole 2-7
B9: KR-053 (peptide)
peptide: {Benzoyl(3,5-(OH)2)}-[Nle][Lys(N3)]H[dF]RW[Pra]K-NH2
modifications: triazole 2-7; not fully specified; printed as HyBA-Nle-[Lys(N3)-His-DPhe-Arg-Trp-Pra]-Lys-NH2
B10: KR-058 (peptide)
peptide: Ac-[Nle][Lys(N3)]H[dTyr(Me)]RW[Pra]K-NH2
modifications: triazole 2-7; not fully specified; printed as Ac-Nle-[Lys(N3)-His-DTyr(Me)-Arg-Trp-Pra]-Lys-NH2
B11: KR-062 (peptide)
peptide: HyPA-[Nle][Lys(N3)]H[dF]RW[Pra]K-NH2
modifications: triazole 2-7; not fully specified; printed as HyPA-Nle-[Lys(N3)-His-DPhe-Arg-Trp-Pra]-Lys-NH2
B12: KR-037 (peptide)
peptide: Ac-[Nle][Lys(N3)]H[dF]RW[Pra]K-NH2
modifications: triazole 2-7
B13: KR-056 (peptide)
peptide: Ac-[Nle][Lys(N3)]H[dF]RW[Pra]N-NH2
modifications: triazole 2-7; not fully specified; printed as Ac-Nle-[Lys(N3)-His-DPhe-Arg-Trp-Pra]-Asn-NH2
B14: KR-043 (peptide)
peptide: Ac-[Nle][Lys(N3)][NMeH][dF]RW[Pra]-NH2
modifications: triazole 2-7
B15: KR-042 (peptide)
peptide: XXHFRWX
modifications: Ac-Nle-[Dab(N3)-His-DPhe-Arg-Trp-Dab(N3)] linkr: 3,3′-Oxybis[1-propyne]-NH2
B16: KR-067 (peptide)
peptide: Ac-[Nle][Pra]H[dF]RW[Lys(N3)]K-NH2
modifications: triazole 2-7; not fully specified; printed as Ac-Nle-[Pra-His-DPhe-Arg-Trp-Lys(N3)]-Lys-NH2
B17: KR-046 (peptide)
peptide: Ac-[Nle][Lys(N3)]H[dF]R[NMeW][Pra]-NH2
modifications: triazole 2-7
B18: KR-044 (peptide)
peptide: Ac-[Nle][Lys(N3)]H[dNMeF]RW[Pra]-NH2
modifications: triazole 2-7
B19: KR-052 (peptide)
peptide: Ac-[Nle][Lys(N3)][NMeH][dF][NMeR]W[Pra]-NH2
modifications: triazole 2-7; not fully specified
B20: KR-060 (peptide)
peptide: Ac-[Nle][Lys(N3)]H[dF]R[Trp(1-Me)][Pra]K-NH2
modifications: triazole 2-7; not fully specified; printed as Ac-Nle-[Lys(N3)-His-DPhe-Arg-Trp(Me)-Pra]-Lys-NH2
B21: KR-005 (peptide)
peptide: Ac-SYSMEHFRWGKP-NH2
B22: KR-065 (peptide)
peptide: Ac-[Nle][Orn(N3)]H[dF]RW[Pra]K-NH2
modifications: triazole 2-7; not fully specified; printed as Ac-Nle-[Orn(N3)-His-DPhe-Arg-Trp-Pra]-Lys-NH2
B23: KR-068 (peptide)
peptide: Ac-[Nle][Orn(N3)]H[dF]RW[Hpra]K-NH2
modifications: triazole 2-7; not fully specified; printed as Ac-Nle-[Orn(N3)-His-DPhe-Arg-Trp-Hpra]-Lys-NH2
B24: KR-041 (peptide)
peptide: XXHFRWX
modifications: Ac-Nle-[Dab-His-DPhe-Arg-Trp-Dab] Linker: succinic acid-NH2
B25: KR-039 (peptide)
peptide: Ac-[Nle][S5]H[dF]RW[S5]-NH2
modifications: staple 2-7
B26: KR-050 (peptide)
peptide: Ac-[Nle][Lys(N3)]H[dF][NMeR][NMeW][Pra]-NH2
modifications: triazole 2-7
B27: KR-048 (peptide)
peptide: Ac-[Nle][Lys(N3)]H[dPhe(4-CF3)]RW[Pra]-NH2
modifications: triazole 2-7
B28: KR-004 (peptide)
peptide: Ac-EHFRWGKPV-NH2
B29: KR-047 (peptide)
peptide: Ac-[Nle][Lys(N3)][Phe(4-NH2)][dF]RW[Pra]-NH2
modifications: triazole 2-7
B30: KR-063 (peptide)
peptide: {MoPA-MoPA}-[Nle][Lys(N3)]H[dF]RW[Pra]K-NH2
modifications: triazole 2-7; not fully specified; printed as MoPA-MoPA-Nle-[Lys(N3)-His-DPhe-Arg-Trp-Pra]-Lys-NH2

Biological target: human recombinant MC4R (CHO-K1/Gα15 stable cell line, GenScript) (human, UniProt P32245 1-332)
Test: cell-based or functional assay

human recombinant MC4R (CHO-K1/Gα15 stable cell line, GenScript), sequence (P32245 whole entry): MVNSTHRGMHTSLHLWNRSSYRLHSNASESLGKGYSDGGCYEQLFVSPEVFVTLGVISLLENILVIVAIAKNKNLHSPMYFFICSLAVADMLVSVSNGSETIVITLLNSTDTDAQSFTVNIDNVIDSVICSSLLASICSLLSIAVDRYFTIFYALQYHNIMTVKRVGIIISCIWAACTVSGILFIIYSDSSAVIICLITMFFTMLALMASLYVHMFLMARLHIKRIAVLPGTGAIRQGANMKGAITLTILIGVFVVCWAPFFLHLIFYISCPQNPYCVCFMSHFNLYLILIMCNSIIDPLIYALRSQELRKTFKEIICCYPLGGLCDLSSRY

Row | MC4R IC50 [nM] | Binder
1 | 74 | B1
2 | 80.9 | B2
3 | 33.5 | B3
4 | 31.9 | B4
5 | 101 | B5
6 | 75.1 | B6
7 | 96.2 | B7
8 | 40.3 | B8
9 | 39.8 | B9
10 | 122 | B10
11 | 44.4 | B11
12 | 35 | B12
13 | 23.1 | B13
14 | 31.4 | B14
15 | 109 | B15
16 | 28.7 | B16
17 | 39.3 | B17
18 | 238 | B18
19 | 122 | B19
20 | 67.6 | B20
21 | 67 | B21
22 | 36 | B22
23 | 21.8 | B23
24 | 13.8 | B24
25 | 35.4 | B25
26 | 242 | B26
27 | 183 | B27
28 | 34.2 | B28
29 | 17.9 | B29
30 | 67.1 | B30

Biological target: human recombinant MC3R (CHO-K1/Gα15 stable cell line, GenScript) (human, UniProt P41968 1-323)
Test: cell-based or functional assay

human recombinant MC3R (CHO-K1/Gα15 stable cell line, GenScript), sequence (P41968 whole entry): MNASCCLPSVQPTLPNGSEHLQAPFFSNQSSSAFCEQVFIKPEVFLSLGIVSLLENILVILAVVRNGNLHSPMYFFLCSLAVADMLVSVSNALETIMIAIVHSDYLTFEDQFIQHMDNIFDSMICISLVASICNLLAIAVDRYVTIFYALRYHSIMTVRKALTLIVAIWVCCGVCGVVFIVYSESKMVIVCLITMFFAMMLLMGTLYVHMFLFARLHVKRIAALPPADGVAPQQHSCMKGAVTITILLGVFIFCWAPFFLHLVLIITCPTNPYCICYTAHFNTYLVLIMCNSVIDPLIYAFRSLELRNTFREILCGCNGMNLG

Row | MC3R IC50 [nM] | Binder
31 | 20000 | B1
32 | 224 | B2
33 | 73.3 | B3
34 | 67.8 | B4
35 | 51.1 | B5
36 | 39.9 | B6
37 | 77.5 | B7
38 | > 50000 | B8
39 | 78.1 | B9
40 | > 50000 | B10
41 | 13 | B11
42 | 62.9 | B12
43 | 66.5 | B13
44 | 61.6 | B14
45 | 225 | B15
46 | 66.2 | B16
47 | 98.8 | B17
48 | > 50000 | B18
49 | > 50000 | B19
50 | 260 | B20
51 | 149 | B21
52 | 91.6 | B22
53 | 27.6 | B23
54 | 24.1 | B24
55 | 426 | B25
56 | 4480 | B26
57 | > 50000 | B27
58 | 937 | B28
59 | 80.9 | B29
60 | 62.8 | B30

Biological target: human recombinant MC5R (CHO-K1/Ga15 stable cell line, GenScript) (human, UniProt P33032 1-325)
Test: cell-based or functional assay

human recombinant MC5R (CHO-K1/Ga15 stable cell line, GenScript), sequence (P33032 whole entry): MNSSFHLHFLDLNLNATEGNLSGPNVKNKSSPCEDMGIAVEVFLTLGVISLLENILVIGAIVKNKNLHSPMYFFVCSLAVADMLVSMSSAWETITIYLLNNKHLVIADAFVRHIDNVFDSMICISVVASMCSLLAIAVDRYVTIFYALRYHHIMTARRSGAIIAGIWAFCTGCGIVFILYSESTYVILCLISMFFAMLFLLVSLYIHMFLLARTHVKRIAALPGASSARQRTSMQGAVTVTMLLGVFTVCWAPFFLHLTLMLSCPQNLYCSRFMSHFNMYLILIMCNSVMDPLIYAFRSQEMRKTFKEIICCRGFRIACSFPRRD

Row | MC5R IC50 [nM] | Binder
61 | 5090 | B1
62 | 122 | B2
63 | 107 | B3
64 | 82.3 | B4
65 | 150 | B5
66 | 64 | B6
67 | 98.9 | B7
68 | 191 | B8
69 | 120 | B9
70 | 195 | B10
71 | 167 | B11
72 | 106 | B12
73 | 69.6 | B13
74 | 86 | B14
75 | 237 | B15
76 | 79.7 | B16
77 | 94.8 | B17
78 | 2300 | B18
79 | 195 | B19
80 | 319 | B20
81 | 79.8 | B21
82 | 70.2 | B22
83 | 40.4 | B23
84 | 44.3 | B24
85 | 739 | B25
86 | 234 | B26
87 | 48.8 | B27
88 | > 10000 | B28
89 | 41.9 | B29
90 | 99.6 | B30

Biological target: human recombinant MC1R (CHO-K1 stable cell line, GenScript) (human, UniProt Q01726 1-317)
Test: cell-based or functional assay

human recombinant MC1R (CHO-K1 stable cell line, GenScript), sequence (Q01726 whole entry): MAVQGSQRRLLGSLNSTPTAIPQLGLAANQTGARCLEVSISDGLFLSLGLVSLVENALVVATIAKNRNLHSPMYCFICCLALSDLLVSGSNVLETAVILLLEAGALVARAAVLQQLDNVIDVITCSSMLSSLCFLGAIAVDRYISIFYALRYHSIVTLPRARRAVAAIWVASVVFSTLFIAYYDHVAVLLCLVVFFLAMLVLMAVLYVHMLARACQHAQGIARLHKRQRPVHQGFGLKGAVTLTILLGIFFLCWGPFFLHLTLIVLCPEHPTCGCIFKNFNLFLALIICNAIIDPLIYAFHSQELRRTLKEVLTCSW

Row | MC1R IC50 [nM] | Binder
91 | > 50 | B1
92 | 0.11 | B2
93 | 0.024 | B3
94 | 0.093 | B4
95 | 28 | B5
96 | 0.0047 | B6
97 | 0.043 | B7
98 | 0.48 | B8
99 | 0.0089 | B9
100 | 2.68 | B10
101 | 0.03 | B11
102 | 0.024 | B12
103 | 0.052 | B13
104 | 0.15 | B14
105 | 0.16 | B15
106 | 0.11 | B16
107 | 0.28 | B17
108 | > 50 | B18
109 | 2.68 | B19
110 | 0.79 | B20
111 | 0.093 | B21
112 | 0.027 | B22
113 | 0.04 | B23
114 | 0.04 | B24
115 | 1.95 | B25
116 | 0.081 | B26
117 | 0.18 | B27
118 | 1.15 | B28
119 | > 50 | B29
120 | 0.05 | B30
